The RNAGym collection of RNA variant scans (doi:10.1093/molbev/msab373)

B1: Azoarcus group I ribozyme (parent)
chain: GUGCCUUGCGCCGGGAAACCACGCAAGGGAUGGUGUCAAAUUCGGCGAAACCUAAGCGCCCGCCCGGGCGUAUGGCAACGCCGAGCCAAGCUUCGGCGCCUGCGCCGAUGAAGGUGUAGAGACUAGACGGCACCCACCUAAGGCAAACGCUAUGGUGAAGGCAUAGUCCAGGGAGUGGCGAAAGUCACACAAACCGG

Variants of: B1
Test: reverse-splicing fitness (ratio to wild type); higher = more active; in vitro selection; Mg2+ level not given
Method in brief: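 An in vitro group I ribozyme library with randomized positions was T7-transcribed and gel-purified. In triplicate, 10 pmol RNA in EPPS pH 7.5 was reacted with 50 pmoles of a 30-nt RNA substrate for 1 h at 37 °C across several added MgCl2 levels (1–48 mM), then stopped with EDTA. Products were reverse transcribed from a substrate-complementary primer, PCR-amplified and sequenced (HiSeq 4000). Fitness is a variant's read proportion after selection over that before, normalised to wild type.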

Variant | reverse-splicing fitness
GUGCCUUGCGCCGGGAAACCACGCAAGGGAUGGUGUCAAAUUCGGCGAAACCUAAGCGCCCGCCCGGGCGUAUGGCAACGCCGAGCCAAGCUUCGGCGCCUGCGCCGAUGGAGGUGUAGGGACUAGACGGCACCCACCUAAGGCAAACGUUAUGGUGAAGGCAUAGUCUAGGGAGGGGCGAAAGUCACACAAACCGG [A111G A120G C150U C169U U176G] | 0.00845
GUGCCUUGCGCCGGGAAACCACGCAAGGGAUGGUGUCAAAUUCGGCGAAACCUAAGCGCCCGCCCGGGCGUAUGGCAACGCCGAGCCAAGCUUCGGCGCCUGCGCCGAUGGAGGUGUAGGGACUAGACGGCACCCACCUAAGGCAAACGUUAUGGUGAAGGCAUAGUCUAGGGAGCGGCGAAAGUCACACAAACCGG [A111G A120G C150U C169U U176C] | 0.0607
GUGCCUUGCGCCGGGAAACCACGCAAGGGAUGGUGUCAAAUUCGGCGAAACCUAAGCGCCCGCCCGGGCGUAUGGCAACGCCGAGCCAAGCUUCGGCGCCUGCGCCGAUGGAGGUGUAGGGACUAGACGGCACCCACCUAAGGCAAACGUUAUGGUGAAGGCAUAGUCUAGGGAGAGGCGAAAGUCACACAAACCGG [A111G A120G C150U C169U U176A] | 0.0545
GUGCCUUGCGCCGGGAAACCACGCAAGGGAUGGUGUCAAAUUCGGCGAAACCUAAGCGCCCGCCCGGGCGUAUGGCAACGCCGAGCCAAGCUUCGGCGCCUGCGCCGAUGGAGGUGUAGGGACUAGACGGCACCCACCUAAGGCAAACGCUAUGGUGAAGGCAUAGUCAAGGGAGUGGCGAAAGUCACACAAACCGG [A111G A120G C169A] | 0.165
GUGCCUUGCGCCGGGAAACCACGCAAGGGAUGGUGUCAAAUUCGGCGAAACCUAAGCGCCCGCCCGGGCGUAUGGCAACGCCGAGCCAAGCUUCGGCGCCUGCGCCGAUGGAGGUGUAGGGACUAGACGGCACCCACCUAAGGCAAACGGUAUGGUGAAGGCAUAGUCUAGGGAGCGGCGAAAGUCACACAAACCGG [A111G A120G C150G C169U U176C] | 0.0166
GUGCCUUGCGCCGGGAAACCACGCAAGGGAUGGUGUCAAAUUCGGCGAAACCUAAGCGCCCGCCCGGGCGUAUGGCAACGCCGAGCCAAGCUUCGGCGCCUGCGCCGAUGGAGGUGUAGGGACUAGACGGCACCCACCUAAGGCAAACGGUAUGGUGAAGGCAUAGUCUAGGGAGGGGCGAAAGUCACACAAACCGG [A111G A120G C150G C169U U176G] | 0.00593
GUGCCUUGCGCCGGGAAACCACGCAAGGGAUGGUGUCAAAUUCGGCGAAACCUAAGCGCCCGCCCGGGCGUAUGGCAACGCCGAGCCAAGCUUCGGCGCCUGCGCCGAUGGAGGUGUAGGGACUAGACGGCACCCACCUAAGGCAAACGGUAUGGUGAAGGCAUAGUCUAGGGAGAGGCGAAAGUCACACAAACCGG [A111G A120G C150G C169U U176A] | 0.0138
GUGCCUUGCGCCGGGAAACCACGCAAGGGAUGGUGUCAAAUUCGGCGAAACCUAAGCGCCCGCCCGGGCGUAUGGCAACGCCGAGCCAAGCUUCGGCGCCUGCGCCGAUGGAGGUGUAGGGACUAGACGGCACCCACCUAAGGCAAACGGUAUGGUGAAGGCAUAGUCGAGGGAGCGGCGAAAGUCACACAAACCGG [A111G A120G C150G C169G U176C] | 0.00503
GUGCCUUGCGCCGGGAAACCACGCAAGGGAUGGUGUCAAAUUCGGCGAAACCUAAGCGCCCGCCCGGGCGUAUGGCAACGCCGAGCCAAGCUUCGGCGCCUGCGCCGAUGGAGGUGUAGGGACUAGACGGCACCCACCUAAGGCAAACGGUAUGGUGAAGGCAUAGUCGAGGGAGGGGCGAAAGUCACACAAACCGG [A111G A120G C150G C169G U176G] | 0.00386
GUGCCUUGCGCCGGGAAACCACGCAAGGGAUGGUGUCAAAUUCGGCGAAACCUAAGCGCCCGCCCGGGCGUAUGGCAACGCCGAGCCAAGCUUCGGCGCCUGCGCCGAUGGAGGUGUAGGGACUAGACGGCACCCACCUAAGGCAAACGGUAUGGUGAAGGCAUAGUCGAGGGAGAGGCGAAAGUCACACAAACCGG [A111G A120G C150G C169G U176A] | 0.0075
GUGCCUUGCGCCGGGAAACCACGCAAGGGAUGGUGUCAAAUUCGGCGAAACCUAAGCGCCCGCCCGGGCGUAUGGCAACGCCGAGCCAAGCUUCGGCGCCUGCGCCGAUGGAGGUGUAGGGACUAGACGGCACCCACCUAAGGCAAACGUUAUGGUGAAGGCAUAGUCCAGGGAGUGGCGAAAGUCACACAAACCGG [A111G A120G C150U] | 0.156
GUGCCUUGCGCCGGGAAACCACGCAAGGGAUGGUGUCAAAUUCGGCGAAACCUAAGCGCCCGCCCGGGCGUAUGGCAACGCCGAGCCAAGCUUCGGCGCCUGCGCCGAUGGAGGUGUAGGGACUAGACGGCACCCACCUAAGGCAAACGCUAUGGUGAAGGCAUAGUCAAGGGAGAGGCGAAAGUCACACAAACCGG [A111G A120G C169A U176A] | 0.0455
GUGCCUUGCGCCGGGAAACCACGCAAGGGAUGGUGUCAAAUUCGGCGAAACCUAAGCGCCCGCCCGGGCGUAUGGCAACGCCGAGCCAAGCUUCGGCGCCUGCGCCGAUGGAGGUGUAGGGACUAGACGGCACCCACCUAAGGCAAACGCUAUGGUGAAGGCAUAGUCAAGGGAGCGGCGAAAGUCACACAAACCGG [A111G A120G C169A U176C] | 0.0737
GUGCCUUGCGCCGGGAAACCACGCAAGGGAUGGUGUCAAAUUCGGCGAAACCUAAGCGCCCGCCCGGGCGUAUGGCAACGCCGAGCCAAGCUUCGGCGCCUGCGCCGAUGGAGGUGUAGGGACUAGACGGCACCCACCUAAGGCAAACGGUAUGGUGAAGGCAUAGUCGAGGGAGUGGCGAAAGUCACACAAACCGG [A111G A120G C150G C169G] | 0.0259
GUGCCUUGCGCCGGGAAACCACGCAAGGGAUGGUGUCAAAUUCGGCGAAACCUAAGCGCCCGCCCGGGCGUAUGGCAACGCCGAGCCAAGCUUCGGCGCCUGCGCCGAUGGAGGUGUAGGGACUAGACGGCACCCACCUAAGGCAAACGGUAUGGUGAAGGCAUAGUCUAGGGAGUGGCGAAAGUCACACAAACCGG [A111G A120G C150G C169U] | 0.0264
